Results published in the Human Domainome abundance scans (Beltran et al. 2025).
± gives the uncertainty stated by the source.

B1: DnaJ homolog subfamily C member 5, residues 16 to 77; numbered along this chain, Q9H3Z4 (parent)
chain: LYHVLGLDKNATSDDIKKSYRKLALKYHPDKNPDNPEAADKFKEINNAHAILTDATKRNIYD

Variants of: B1
Test: abundance fitness (aPCA) (normalised: wild type 0, dead -1); higher = more abundant; growth selection in yeast, the domain comes from the species named
Details: Homo sapiens
N10Q gave an abundance fitness of -0.266 ± 0.087. With N10E the abundance fitness was -0.343 ± 0.098. Variant N10S has an abundance fitness of -0.142 ± 0.078. For N10Y, the abundance fitness was -0.796 ± 0.22. Work on N10H yielded an abundance fitness of -0.493 ± 0.28. In the case of A24E, the abundance fitness is reported as 0.028 ± 0.099. With A24S the abundance fitness was 0.044 ± 0.058. A24L gave an abundance fitness of -0.095 ± 0.058. A24C gave an abundance fitness of 0.159 ± 0.074. A24T gave an abundance fitness of 0.002 ± 0.064. In the case of A24M, the abundance fitness is reported as -0.028 ± 0.12. A24R showed an abundance fitness of -0.041 ± 0.059. For A24P, the abundance fitness was -0.449 ± 0.1. A24I gave an abundance fitness of 0.086 ± 0.096. A24V gave an abundance fitness of 0.126 ± 0.068. A24Y showed an abundance fitness of 0.208 ± 0.091. A24F showed an abundance fitness of 0.213 ± 0.1. Work on A24K yielded an abundance fitness of -0.034 ± 0.057. In the case of A24D, the abundance fitness is reported as -0.552 ± 0.15. In the case of A24Q, the abundance fitness is reported as -0.093 ± 0.076. A24G gave an abundance fitness of -0.377 ± 0.075. For A24W, the abundance fitness was 0.245 ± 0.084. For K17V, the abundance fitness was 0.039 ± 0.079. In the case of K17Q, the abundance fitness is reported as -0.063 ± 0.09. K17H showed an abundance fitness of 0.057 ± 0.13. With K17W the abundance fitness was -0.204 ± 0.069. Work on K17T yielded an abundance fitness of -0.07 ± 0.096. K17N gave an abundance fitness of -0.248 ± 0.34. For K17D, the abundance fitness was -0.477 ± 0.47. K17M gave an abundance fitness of -0.09 ± 0.09. In the case of K17L, the abundance fitness is reported as -0.18 ± 0.07. K17S gave an abundance fitness of -0.153 ± 0.075. In the case of K17A, the abundance fitness is reported as 0.048 ± 0.068. Variant K17G has an abundance fitness of -0.251 ± 0.066. K17C showed an abundance fitness of -0.361 ± 0.1. K17P showed an abundance fitness of -1.31 ± 0.13. K17F showed an abundance fitness of -0.52 ± 0.19. Variant K17R has an abundance fitness of -0.032 ± 0.061. K17I gave an abundance fitness of -0.107 ± 0.17. Variant K17E has an abundance fitness of 0.084 ± 0.088. With D14S the abundance fitness was -0.242 ± 0.07. For D14E, the abundance fitness was -0.048 ± 0.099. For D14F, the abundance fitness was -0.848 ± 0.3. D14L gave an abundance fitness of -0.238 ± 0.073. Work on D14H yielded an abundance fitness of -0.394 ± 0.26. Work on D14A yielded an abundance fitness of -0.166 ± 0.094. D14P gave an abundance fitness of -0.348 ± 0.11. D14T showed an abundance fitness of -0.346 ± 0.099. For D14C, the abundance fitness was -0.549 ± 0.11. With D14V the abundance fitness was -0.341 ± 0.074. Work on D14Q yielded an abundance fitness of -0.394 ± 0.1. D14Y showed an abundance fitness of -0.431 ± 0.16. D14W gave an abundance fitness of -0.357 ± 0.075. D14I gave an abundance fitness of -0.105 ± 0.14. D14R gave an abundance fitness of -0.359 ± 0.056. Variant D14G has an abundance fitness of -0.401 ± 0.065. D14N gave an abundance fitness of -0.151 ± 0.15. With D14K the abundance fitness was -0.209 ± 0.12. Variant L5V has an abundance fitness of -0.906 ± 0.12. With L5S the abundance fitness was -0.267 ± 0.11. For L5T, the abundance fitness was -0.368 ± 0.27. In the case of L5Y, the abundance fitness is reported as -0.606 ± 0.38. L5R gave an abundance fitness of -0.889 ± 0.1. Work on D8M yielded an abundance fitness of -0.355 ± 0.08. Variant D8C has an abundance fitness of -0.497 ± 0.098. For D8F, the abundance fitness was -0.533 ± 0.11. With D8V the abundance fitness was -0.648 ± 0.077. Work on D8S yielded an abundance fitness of -0.378 ± 0.063. In the case of D8H, the abundance fitness is reported as -0.42 ± 0.14. With D8K the abundance fitness was -0.516 ± 0.13. Variant D8T has an abundance fitness of -0.309 ± 0.088. Work on D8W yielded an abundance fitness of -0.648 ± 0.086. For D8Y, the abundance fitness was -0.421 ± 0.1. D8G gave an abundance fitness of -0.459 ± 0.075. D8N gave an abundance fitness of -0.277 ± 0.11. For D8R, the abundance fitness was -0.44 ± 0.066. For D8P, the abundance fitness was 0.108 ± 0.12. D8I gave an abundance fitness of -0.807 ± 0.11. With D8A the abundance fitness was -0.258 ± 0.069. With D8Q the abundance fitness was -0.019 ± 0.12. In the case of I16P, the abundance fitness is reported as -0.587 ± 0.095. With I16Q the abundance fitness was -0.437 ± 0.1. I16N gave an abundance fitness of -0.615 ± 0.18. Work on I16F yielded an abundance fitness of -0.064 ± 0.18. I16D showed an abundance fitness of -0.567 ± 0.13. For I16C, the abundance fitness was -0.44 ± 0.12. In the case of I16S, the abundance fitness is reported as -0.435 ± 0.08. I16M gave an abundance fitness of -0.65 ± 0.091. In the case of I16V, the abundance fitness is reported as -0.238 ± 0.072. I16H gave an abundance fitness of -0.723 ± 0.13. Work on I16W yielded an abundance fitness of -0.998 ± 0.094. Work on I16G yielded an abundance fitness of -0.442 ± 0.073. Variant I16E has an abundance fitness of -0.305 ± 0.11. In the case of I16A, the abundance fitness is reported as -0.32 ± 0.089. In the case of I16Y, the abundance fitness is reported as -0.649 ± 0.14. I16R gave an abundance fitness of -0.586 ± 0.058. I16K gave an abundance fitness of -0.45 ± 0.098. Work on I16L yielded an abundance fitness of -0.285 ± 0.065. In the case of T12E, the abundance fitness is reported as -0.573 ± 0.12. Work on T12M yielded an abundance fitness of -0.678 ± 0.12. Work on T12A yielded an abundance fitness of -0.878 ± 0.12. In the case of T12I, the abundance fitness is reported as -0.412 ± 0.11. For T12Y, the abundance fitness was -1.07 ± 0.2. With T12N the abundance fitness was -0.426 ± 0.17. T12L gave an abundance fitness of -0.813 ± 0.084. Variant T12H has an abundance fitness of -0.349 ± 0.13. In the case of T12D, the abundance fitness is reported as -0.467 ± 0.21. With T12G the abundance fitness was -0.472 ± 0.072. T12F gave an abundance fitness of -0.857 ± 0.13. T12W showed an abundance fitness of -1.31 ± 0.12. T12S gave an abundance fitness of -0.232 ± 0.11. In the case of T12C, the abundance fitness is reported as -0.235 ± 0.12. T12K showed an abundance fitness of -0.437 ± 0.14. Variant T12P has an abundance fitness of -1.01 ± 0.1. Variant K18R has an abundance fitness of -0.13 ± 0.062. Work on K18P yielded an abundance fitness of -0.623 ± 0.086. With K18I the abundance fitness was -0.005 ± 0.13. With K18F the abundance fitness was 0.117 ± 0.21. In the case of K18C, the abundance fitness is reported as -0.101 ± 0.1. With K18D the abundance fitness was -0.062 ± 0.19. K18L gave an abundance fitness of -0.157 ± 0.067. K18E showed an abundance fitness of 0.11 ± 0.086. Work on K18Y yielded an abundance fitness of -0.333 ± 0.19. In the case of K18S, the abundance fitness is reported as 0.04 ± 0.07. For K18N, the abundance fitness was -0.34 ± 0.18. K18W gave an abundance fitness of -0.226 ± 0.091. With K18T the abundance fitness was -0.025 ± 0.1. In the case of K18Q, the abundance fitness is reported as -0.104 ± 0.11. Variant K18A has an abundance fitness of 0.079 ± 0.1. Work on K18V yielded an abundance fitness of -0.098 ± 0.069. K18M showed an abundance fitness of 0.06 ± 0.09. L25E showed an abundance fitness of 0.321 ± 0.11. With L25Y the abundance fitness was -0.299 ± 0.12. Variant L25C has an abundance fitness of -0.102 ± 0.11. With L25V the abundance fitness was -0.007 ± 0.065. For L25P, the abundance fitness was -0.21 ± 0.095. Work on L25H yielded an abundance fitness of -0.442 ± 0.23. L25S gave an abundance fitness of -0.377 ± 0.08. Variant L25R has an abundance fitness of -0.069 ± 0.067. Work on L25A yielded an abundance fitness of 0.039 ± 0.066. Work on L25G yielded an abundance fitness of -0.293 ± 0.064. L25D showed an abundance fitness of 0.17 ± 0.089. Work on L25W yielded an abundance fitness of -0.346 ± 0.088. For L25N, the abundance fitness was -0.073 ± 0.11. In the case of L25F, the abundance fitness is reported as -0.068 ± 0.085. Variant L25M has an abundance fitness of -0.101 ± 0.078. With L25T the abundance fitness was -0.025 ± 0.096. Work on L25K yielded an abundance fitness of -0.159 ± 0.22. For L25Q, the abundance fitness was 0.024 ± 0.11. In the case of R21A, the abundance fitness is reported as 0.379 ± 0.48. Y20P gave an abundance fitness of -0.093 ± 0.075. In the case of Y20K, the abundance fitness is reported as -0.27 ± 0.14. Work on Y20T yielded an abundance fitness of -0.236 ± 0.072. Variant Y20I has an abundance fitness of -0.603 ± 0.29. With Y20G the abundance fitness was -0.189 ± 0.071. Work on Y20H yielded an abundance fitness of 0.109 ± 0.25. Y20M gave an abundance fitness of -0.414 ± 0.089. Y20W showed an abundance fitness of 0.329 ± 0.075. Y20C showed an abundance fitness of -0.182 ± 0.091. In the case of Y20R, the abundance fitness is reported as -0.148 ± 0.055. Work on Y20L yielded an abundance fitness of -0.505 ± 0.065. Y20E showed an abundance fitness of 0.2 ± 0.071. Work on Y20Q yielded an abundance fitness of 0.015 ± 0.13. Variant Y20S has an abundance fitness of -0.086 ± 0.068. With Y20F the abundance fitness was 0.191 ± 0.12. With Y20V the abundance fitness was -0.28 ± 0.055. Work on Y20D yielded an abundance fitness of -0.053 ± 0.12.
